In US20170368132A1 (published 2017):

What was measured:
H. sapiens Rad51 = molecular target: T1, H. sapiens Rad51 (H. sapiens, UniProt Q06609 1-339); test: yeast two-hybrid, growth on -ADE -HIS
T1 construct: Expressed in yeast as a two-hybrid fusion; also called human RAD51
T1 sequence: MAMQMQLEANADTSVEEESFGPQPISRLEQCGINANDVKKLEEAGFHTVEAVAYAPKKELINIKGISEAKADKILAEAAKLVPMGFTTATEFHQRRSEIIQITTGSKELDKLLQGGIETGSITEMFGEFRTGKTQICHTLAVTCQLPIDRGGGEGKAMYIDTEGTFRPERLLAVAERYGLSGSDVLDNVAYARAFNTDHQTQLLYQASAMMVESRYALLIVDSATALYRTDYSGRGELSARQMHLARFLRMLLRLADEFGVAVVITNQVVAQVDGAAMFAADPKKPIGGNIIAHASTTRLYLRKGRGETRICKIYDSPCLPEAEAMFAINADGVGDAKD
Experimental: RAD51-binding peptides were tested for ability to bind RAD51 of several different species using a “conventional” Y2H assay, where interaction between the two-hybrid pair drove expression of ADE2 and HIS genes. In this Y2H assay the two-hybrid pair was RAD51 and the compound 5 peptide sequence (SEQ ID NO.:5), so that cells having the interaction would survive (+) and cells not having the interaction would die (−) on selective media (−ADE, −HIS).

Rad51 (F86E; A89E) = molecular target: T2, Rad51 (F86E; A89E) (human, UniProt Q06609 1-339); test: yeast two-hybrid, human RAD51 mutant
T2 construct: Human RAD51 mutant tested by Y2H; also called human RAD51 F86E A89E
T2 chain: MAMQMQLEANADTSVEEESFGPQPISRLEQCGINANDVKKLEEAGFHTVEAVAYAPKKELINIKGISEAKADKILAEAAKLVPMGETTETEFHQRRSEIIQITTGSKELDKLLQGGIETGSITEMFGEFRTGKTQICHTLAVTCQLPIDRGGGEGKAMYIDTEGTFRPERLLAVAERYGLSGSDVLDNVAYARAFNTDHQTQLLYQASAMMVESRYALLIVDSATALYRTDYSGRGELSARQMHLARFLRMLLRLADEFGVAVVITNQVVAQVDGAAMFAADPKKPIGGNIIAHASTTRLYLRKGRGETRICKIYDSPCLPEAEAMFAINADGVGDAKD
Experimental: (§1) The ability of peptides to bind human RAD51 with various mutations was then tested by Y2H assay. […] While mutations affecting BRCA2 binding had no effect on peptide binding, mutations that affected RAD51-AP1 binding did disrupt peptide binding. As these mutations were at residues 202, 205, and 206, they were consistent with the previous fusion data showing binding somewhere in the 190-218 region, and indicated the peptide SEQ ID NO.:5 contacts at least residues 202, 205, and 206 of RAD51.

Rad51 (S208E; A209D) = molecular target: T3, Rad51 (S208E; A209D) (human, UniProt Q06609 1-339); test: yeast two-hybrid, human RAD51 mutant
T3 construct: Human RAD51 mutant tested by Y2H; also called human RAD51 S208E A209D
T3 chain: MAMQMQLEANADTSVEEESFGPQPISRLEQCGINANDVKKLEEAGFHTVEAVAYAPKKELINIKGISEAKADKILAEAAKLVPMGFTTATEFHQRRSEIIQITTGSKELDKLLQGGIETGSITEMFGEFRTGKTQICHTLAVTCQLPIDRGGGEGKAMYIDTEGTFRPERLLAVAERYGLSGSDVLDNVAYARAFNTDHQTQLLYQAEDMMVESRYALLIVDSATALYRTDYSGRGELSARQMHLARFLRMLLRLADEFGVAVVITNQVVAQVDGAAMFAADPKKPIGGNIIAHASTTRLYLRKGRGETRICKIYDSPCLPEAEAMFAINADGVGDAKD
Experimental: as §1

[1] = molecular target: T4, Rad51 (S208L; A209E; M210A) (human, UniProt Q06609 1-339); test: yeast two-hybrid, human RAD51 mutant
T4 construct: Human RAD51 mutant tested by Y2H; also called human RAD51 S208L A209E M210A
T4 chain: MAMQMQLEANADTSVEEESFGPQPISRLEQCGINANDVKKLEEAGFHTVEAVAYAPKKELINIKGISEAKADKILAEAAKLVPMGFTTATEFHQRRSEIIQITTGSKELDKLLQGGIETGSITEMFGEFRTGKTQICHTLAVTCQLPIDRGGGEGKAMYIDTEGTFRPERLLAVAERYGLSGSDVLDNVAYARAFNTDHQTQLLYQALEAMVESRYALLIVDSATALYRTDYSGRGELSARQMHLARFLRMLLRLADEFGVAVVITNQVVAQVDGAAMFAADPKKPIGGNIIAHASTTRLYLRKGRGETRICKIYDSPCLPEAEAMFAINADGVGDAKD
Experimental: as §1

Rad51 (A190L; A192L) = molecular target: T5, Rad51 (A190L; A192L) (human, UniProt Q06609 1-339); test: yeast two-hybrid, human RAD51 mutant
T5 construct: Human RAD51 mutant tested by Y2H; also called human RAD51 A190L A192L
T5 chain: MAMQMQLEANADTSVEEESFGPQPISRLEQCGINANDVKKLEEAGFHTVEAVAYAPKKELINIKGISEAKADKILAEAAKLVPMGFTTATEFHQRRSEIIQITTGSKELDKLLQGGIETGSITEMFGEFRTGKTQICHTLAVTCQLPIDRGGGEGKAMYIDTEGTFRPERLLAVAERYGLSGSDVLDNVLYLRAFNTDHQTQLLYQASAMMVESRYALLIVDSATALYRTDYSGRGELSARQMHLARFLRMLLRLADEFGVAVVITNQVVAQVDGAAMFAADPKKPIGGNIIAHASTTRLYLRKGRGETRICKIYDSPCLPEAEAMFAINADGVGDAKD
Experimental: as §1

[2] = molecular target: T6, Rad51 (Q202R, Y205D, Q206A) (human, UniProt Q06609 1-339); test: yeast two-hybrid, human RAD51 mutant
T6 construct: Human RAD51 mutant tested by Y2H; also called human RAD51 Q202R Y205D Q206A
T6 chain: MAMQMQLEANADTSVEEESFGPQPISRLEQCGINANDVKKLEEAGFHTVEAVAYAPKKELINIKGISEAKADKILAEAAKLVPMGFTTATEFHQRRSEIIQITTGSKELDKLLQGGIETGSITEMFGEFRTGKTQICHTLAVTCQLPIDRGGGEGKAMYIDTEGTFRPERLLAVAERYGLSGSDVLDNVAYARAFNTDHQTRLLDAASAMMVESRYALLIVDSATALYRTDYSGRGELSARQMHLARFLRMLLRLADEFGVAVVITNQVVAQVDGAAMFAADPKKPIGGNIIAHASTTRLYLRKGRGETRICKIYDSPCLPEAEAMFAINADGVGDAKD
Experimental: as §1

Q: What does the source list for KRRRRRRRKRLGVRLRVSRML [compound 5 peptide sequence (SEQ ID NO.:5)]?
A: binding result (H. sapiens Rad51): binds; binding result (Rad51 (F86E; A89E)): binds; binding result (Rad51 (S208E; A209D)): binds; binding result [1]: binds; binding result (Rad51 (A190L; A192L)): binds; binding result [2]: no binding
